Measured values as given in the supplement of paper PMC10567573.

B1: ZNF207 (parent)
chain: CHICHKKLYTGPGLAIHCMQVHKE
B2: NEK8 (parent)
chain: YTFGSNQHGQLGTNTRRGSRAPCK

Variants of: B1
Assay: protein stability index of a GFP-peptide fusion (GPS, HEK-293T) (PSI 1-6); higher = more stable
Conditions: c terminus: a fixed tail appended
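Further: lentivirally expressed fusions sorted by FACS into six bins by GFP to DsRed ratio, PSI derived from sequencing read proportions per bin multiplied by bin number.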

Variant	protein stability index
L8Y	2.33
Y9A	4.31
Y9C	3.39
Y9D	4.9
Y9E	4.6
Y9F	3.16
Y9G	3.76
Y9H	3.62
Y9I	2.72
Y9K	3.29
Y9L	3.97
Y9M	4.14
Y9N	3.83
Y9P	3.64
Y9Q	3.93
Y9R	4.11
Y9S	4.28
Y9T	3.27
Y9V	3.19
Y9W	2.34
T10A	3.47
T10C	2.92
T10D	4.59
T10E	3.83
T10F	2.4
T10G	3.06

Variant	protein stability index
T10H	2.68
T10I	2.86
T10K	2.65
T10L	2.49
T10M	2.55
T10N	3.58
T10P	3.68
T10Q	3.8
T10R	2.52
T10S	3.31
T10V	3.5
T10W	2.56
T10Y	2.6
G11A	2.67
G11C	2.31
G11D	3.98
G11E	4.53
G11F	2.63
G11H	2.68
G11I	1.58
G11K	3.34
G11L	2.63
G11M	2.05
G11N	3.59
G11P	3.94
G11Q	3.37

Variant	protein stability index
G11R	3.53
G11S	3.48
G11T	2.48
G11V	2.32
G11W	1.36
G11Y	1.56
P12A	3.84
P12C	3.09
P12D	4.51
P12E	4.48
P12F	2.41
P12G	3.09
P12H	5.06
P12I	3.03
P12K	3.5
P12L	3.46
P12M	3.24
P12N	4.09
P12Q	4.11
P12R	3.88
P12S	3.86
P12T	3.18
P12V	2.05
P12W	3.49
P12Y	3.73
G13A	4.96

Variant	protein stability index
G13C	3.65
G13D	4.82
G13E	4.3
G13F	2.11
G13H	4.02
G13I	2.3
G13K	3.15
G13L	2.9
G13M	3.64
G13N	3.77
G13P	2.43
G13Q	4.07
G13R	2.41
G13S	3.83
G13T	3.37
G13V	2.54
G13W	2.07
G13Y	2.12
L14A	3.96
L14C	3.34
L14D	4.56
L14E	4.44
L14F	2.9
L14G	3.85
L14H	3.69
L14I	3.3

Variant	protein stability index
L14K	3.1
L14M	3.45
L14N	4.65
L14P	3.9
L14Q	3.78
L14R	2.79
L14S	3.22
L14T	3.6
L14V	3
L14W	2.85
L14Y	2.94
A15C	4.64
A15D	4.37
A15E	3.55
A15F	2.91
A15G	4.44
A15H	2.99
A15I	2.79
A15K	3.38
A15L	2.66
A15M	3.35
A15N	3.7
A15P	3.24
A15Q	3.7
A15R	3.19
A15S	3.42

Variant	protein stability index
A15T	3.69
A15V	2.35
A15W	2.27
A15Y	3.21
I16A	3.54
I16C	4.33
I16D	4.71
I16E	4.77
I16F	3.83
I16G	4.1
I16H	4.39
I16K	3.23
I16L	3.01
I16M	3.45
I16N	3.71
I16P	3.97
I16Q	3.9
I16R	2.71
I16S	3.72
I16T	3.82
I16V	3.81
I16W	3.16
I16Y	3.02
H17A	2.15
H17C	3.87
H17D	2.47

Variant	protein stability index
H17E	3.36
H17F	3.52
H17G	2.82
H17I	2.08
H17K	2.19
H17L	1.87
H17M	2.55
H17N	2.25
H17P	2.78
H17Q	2.97
H17R	2.22
H17S	3.15
H17T	2.7
H17V	3.01
H17W	3.87
H17Y	2.67
C18A	2.62
C18D	2.75
C18E	3.57
C18F	2.21
C18G	2.18
C18H	2.56
C18I	2.06
C18K	3.09
C18L	3.69
C18M	2.47

Variant	protein stability index
C18N	2.59
C18P	2.47
C18Q	2.99
C18R	2.4
C18S	3.01
C18T	3.02
C18V	2.8
C18W	1.93
C18Y	2.02
M19A	3.57
M19C	4.56
M19D	3.36
M19E	4.47
M19F	3.75
M19G	3.41
M19H	4.12
M19I	3.47
M19K	3.93
M19L	2.52
M19N	3.9
M19P	3.3
M19Q	3.81
M19R	3.41
M19S	4.03
M19T	3.73
M19V	2.94

Variant	protein stability index
M19W	2.48
M19Y	2.94
Q20A	3.4
Q20C	4.79
Q20D	3.28
Q20E	3.95
Q20F	3.4
Q20G	3.13
Q20H	4.04
Q20I	3.61
Q20K	2.75
Q20L	4
Q20M	3.65
Q20N	3.85
Q20P	2.86
Q20R	2.62
Q20S	1.93
Q20T	3.56
Q20V	3.88
Q20W	2.92
Q20Y	3.36
V21A	3.84
V21C	4.09
V21D	3.5
V21E	3.6
V21F	3.35

Variant	protein stability index
V21G	3.96
V21H	3.44
V21I	2.49
V21K	3.27
V21L	3
V21M	3.72
V21N	3.48
V21P	3.21
V21Q	2.89
V21R	2.84
V21S	3.71
V21T	3.7
V21W	2.89
V21Y	3.93
H22A	2.65
H22C	2.64
H22D	3.04
H22E	2.67
H22F	1.92
H22G	1.88
H22I	2.41
H22K	2.41
H22L	2.11
H22M	2.78
H22N	2.35
H22P	3.15

Variant	protein stability index
H22Q	1.8
H22R	2.11
H22S	1.85
H22T	2.48
H22V	2.03
H22W	1.68
H22Y	1.45
K23A	3.14
K23C	3.06
K23D	3.87
K23E	3.95
K23F	2.04
K23G	3.68
K23H	3.48
K23I	2.21
K23L	2.38
K23M	3.49
K23N	4.12
K23P	3.04
K23Q	3.52
K23R	3.13
K23S	3.35
K23T	2.61
K23V	3.19
K23W	2.25
K23Y	2.19

Variant	protein stability index
E24A	2.66
E24C	3.29
E24D	2.84
E24F	2.53
E24G	2.55
E24H	2.18
E24I	3.47
E24K	2.65
E24L	2.6
E24M	2.11
E24N	2.44
E24P	2.63
E24Q	2.85
E24R	2.34
E24S	3.17
E24T	2.96
E24V	3.65
E24W	2.49
E24Y	2.74

Variants of: B2
Assay: as above
Conditions: c terminus: a fixed tail appended

Variant	protein stability index
Y1A	4.81
Y1C	4.11
Y1D	4.96
Y1E	4.47
Y1F	3.66
Y1G	5.09
Y1H	4.54
Y1I	4.34
Y1K	4.79
Y1L	4.13
Y1M	4.31
Y1N	5.24
Y1P	4.52
Y1Q	4.99
Y1R	4.64
Y1S	4.89
Y1T	4.49
Y1V	4.6
Y1W	4.28
T2A	2.77
T2C	2.88
T2D	4.43
T2E	4.78
T2F	3.25
T2G	4.33
T2H	1.95
T2I	2.44
T2K	3.83
T2L	3.61
